{"source": "a protein production outcome set (Wang et al. 2014)", "experiment": "label from the status in PepcDB records"}
{"sequence": "MQRVAQWAADVPEETLNLLELSQVAGVSLRQLQSAFKAFTGMAPSQWLRLRRLNSAHRELLSRGPTETTVAEVAMHWSFWHLGRFSSSYRALFKELPSQTLKRSAVARR", "values": [{"measurement": "protein production", "result": "failed"}]}
{"sequence": "MSRTNINFNNKRTELANKIWDIFIANGYENTTLAFIINKLGISKGALYHYFSSKEECADAAIENRVAFFSNEVLKESEEGLNSIERLKKILLAGIKITSVNEQVKEINSPSNKIFHQKLMVAIIKYFAPIYADIISQGNEEGVFKVKYPLETAEIILTLSHFYLDEDLFKWKKEDMSLKLTAFKETLIKILDADEDTFDFIK", "values": [{"measurement": "protein production", "result": "not failed"}]}
{"sequence": "MGSSHHHHHHSSGRENLYFQGSQESIQNKISQCKFSVCPERLQCPLEAIQCPITLEQPEKGIFVKNSDGSDVCTLFDAAAFSRLVGEGLPHPLTREPITASIIVKHEECIYDDTRGNFIIKGN", "values": [{"measurement": "protein production", "result": "not failed"}]}
{"sequence": "MMPRLFLLAGLVSAPPLSLDPEPPSSIKMTYSGIVDAGSTGTRLNIYGFLDGEIRHQGLFTNTSRLASIEDDEEIKTSIRELFAHAEPFYSNIKKMPIGFYGTAGFRTLDKSRSDHVLDLIRSELKDYNLKEAEVINGVDEGKLALMALVLSNRGTDAGHRSLGIVDMGGGSTQISLLERDGKVISESIDLGITVLSLSDPDECKIEGDAEQESCASHIASKLAGVAIRPFLNSVDDLYLLSYFHDEFGKVIRSEKTSMREVKDEFYKRCNLLESHECRRLFYLISFIKSLGIEDTKAIHQIDTNNGINITWASGKGYELNKKYN", "values": [{"measurement": "protein production", "result": "failed"}]}
{"sequence": "MTNFQRARSEEQRAVRRQAILDTTAAMLEEMPVGEVSLNELSRRVGLAKSNVLRYFESREAILLELLDRAWQQWVADLPALVHAGVDQGAPVSRRAEQFAAVIAASLAGRQVLCDLLSAQAGVLEHNVSPQVAARYKRAAVANVADIAALAHQHLPELGASAPQLTAVMIMAVGAVWTHARPSPAMLSAYEADPSLTAFKLDFVTTLQEMLATLTAGTIARESA", "values": [{"measurement": "protein production", "result": "not failed"}]}
{"sequence": "MNLPMTMSLQTVSFEEFITTIAAALGCGLLVGLERERSKLKHEYKTFAGFRSFAISSLLGAICFLFGTAIGIVGALLIGAISIVSLKNQPNDPGVTTELAFIMTYFIGALCIWNISLAAGLAVIMTIILLAKQSMHGIASQWITESELRDGIFLLALLLIALPLVPNKPFWGPVLNPHVILKLLTLILFVQALAHIAKRLLSSKNALLLSSLASGFVSSTATIASLGLEVRSGRANAKTNAGAALMSCVSTLVQTLIIVVGISLAWFKLIIFPTLIALAFLAVWAFILLRKAEPSTTSPELDSRMFSLKEAVIIAGTLTLIQAGVYGLSLYLGNAGLIAGTLLASLFEIHAAIAAVIVQGEPNNSQTSLLIAFMGGFAVHAIAKSINSAISGGLHYALAFIPAQILHMTIFIGLLWMNIHWF", "values": [{"measurement": "protein production", "result": "failed"}]}
{"sequence": "MSVAAEVAQVAQSAIDDFNAAYGLCLDDDRLEQWPTLFVDDCLYQVIARENVDNGLPAAVMYCDSKGMLADRVVALRKANVFPEHFNRHLIGRAVITGVEGDQVSAEASYVVFQTRNDGETRIYNAGKYVDRFDLSGGTVRLKSRTCIYDTLRIATLLATPI", "values": [{"measurement": "protein production", "result": "not failed"}]}
{"sequence": "MKKRNISVPSKAYLALIIATLCWGGNTVAGKLAVGHISPMAFTFLRWVLAVAIIFAISVPQLIKDWPVVKQRLPYFFVLGSVGYTAFNVFLYTALQHTSAINAAVIQAGIPMVIFVLNFVLFRTRVLFGQIAGFCLTISGVALLASHGDPLSLLQLEMNVGDAVMLLAVLVYAIYTVILRWKPAVDWRTLMAIPAFFALLTSVPLVFFEMSRESLIWPDQKGWMLVVYAGIFASLIAQILYIKGVEQIGANRAGLFINLVPVFGTLLSVFVLSETLHTYQIAALFMALAGIAVAERKKSPAS", "values": [{"measurement": "protein production", "result": "failed"}]}
{"sequence": "MKRKKIKNQLLVLTSILVLLSLEVAPVVTLAAELPSSSLQTALSSETTITSEEKVTETTETTVATSTTSTSSSSSESSSSTDTTTESTSQSTTETTTTNTSSETKKEPTEPTVSSEITQPVEQSQPPQVPVTKQEPEEPIQVPEANNNFVEENQAVSLNPSLKVDEIASSNLKGYELPLLSSFGEKKRAVVVAEALRHVGKTKKEFNLTEQALTSSFLAQKIYQQLFKIDIGSTPQEQMTFGKVRSIEEAEPGDLIFWQTAEGKTLQNGVYLGQGKYLIAAAESDSKEKPEVIAQLENIYTAKQQPDSKEEKRLVVTNPFKEFILTEYGKEVLATYGASFEMQKSEQTTAFIKKIGETARELGEKYDVFASVMIAQAILESGSGESQLAKEPYYNLFGVKGSFQGNSVSFSTKEADQRGQLYTISAGFRDYGGYNDSLQDYVQLLRQGIDGNQDFYKPAWRSEAKNYLQATRFLTGKYATDKQYDNKLNSLIAVYNLTQFDLPKTVDGLIIQSKNKLSEAEQQQMHFPVYDGINYNRSGSYPVGQCTWYVYNRFKQLGTSVDEFMGNGSDWGRKGRALGYQVSSLPKAGRAISFQPGVAGADNQYGHVAFVEAVTSDGIIISESNVINDQTISYRVLPNVIAYSSGVTYIGA", "values": [{"measurement": "protein production", "result": "failed"}]}
{"sequence": "MTLLVGLGNPTLRYAHTRHNAGFDILDSLVSELDLSFTFSPKHNAFLCVYKDFIFLKPQTYMNLSGESVLSAKNFYKTKELLIVHDDLDLPLGVVRFKNGGGNGGHNGLKSIDLLCSNSYYRLRVGISKGIGVIEHVLSKFHKNEEPLKNAAFEHAKNALKFFIESHDFNAMQNRFTLKKPLKIES", "values": [{"measurement": "protein production", "result": "failed"}]}
{"sequence": "MLSTGLDELVYRSNLIGSDRAVCNWGGGNTSMKTVEKDFRGREIAVMWVKGSGSDLATMGAKNFTGLNLEDIRPLIEREEMSDEEMVEYLGHCMIDRNHPRPSIETLLHAFLPFKHVDHTHPDAIISICCADNGKEIAKNLFGDRFVWVPYVRPGFSLSKLIAEGVQKNPHAELVLMEKHGLVVWGETAKESYDRTISVINEAEAYIRSRINESVIFGGGKLEHHHHHH", "values": [{"measurement": "protein production", "result": "failed"}]}
{"sequence": "MAEEAKAKGNAAFSSGDFTTAINHFTEAIALAPTNHVLFSNRSAAHASLHQYAEALSDAKETIKLKPYWPKGYSRLGAAHLGLNQFELAVTAYKKGLDVDPTNEALKSGLADAEASVARSRAAPNPFGDAFQGPEMWTKLTSDPSTRGFLQQPDFVNMMQEIQKNPSSLNLYLKDQRVMQSLGVLLNVKFRPPPPQGDEAEVPESDMGQSSSNEPEVEKKREPEPEPEPEVTEEKEKKERKEKAKKEKELGNAAYKKKDFETAIQHYSTAIEIDDEDISYLTNRAAVYLEMGKYNECIEDCNKAVERGRELRSDYKMVARALTRKGTALTKMAKCSKDYEPAIEAFQKALTEHRNPDTLKRLNDAERAKKEWEQKQYFDPKLGDEEREKGNDFFKEQKYPEAIKHYTEAIKRNPNDHKAYSNRAASYTKLGAMPEGLKDAEKCIELDPTFSKGYSRKAAVQFFLKEYDNAMETYQAGLEHDPSNQELLDGVKRCVQQINKANRGDLTPEELKERQAKGMQDPEIQNILTDPVMRQVLSDLQENPSAAQKHMQNPMVMNKIQKLISAGIVQMK", "values": [{"measurement": "protein production", "result": "failed"}]}
{"sequence": "MTSFQSTLDDDEDGIAEELAASQREISVAEFFEKNKHMLGFDSGARGLVTAVKEAVDNALDATEEAGILPDIYVEISEGRDYYTLIVEDNGPGITNAQIPKIFGKLLYGSRFHAREQSRGQQGIGISAAVLYSQLTSGKPVRIESRTQDSETANVYELIIDTDTNEPEISAETEVSAAKSDLRGTHGTRIEMALDANMRARGQLHDYIKHTAVVNPHARIELQEPGGELKSERAEEASLPAETDEILPHPHGVELGTLIKMLAETDSHSVSGFLQSEFTRVGSKTATGIIDAFRDEHFGREMRWRPPADADLEATVADAVANKDATHTAVFARTVADAVRDADSIAPAELGALVADAAADAQDDTGTSFGETVQANVVAAVRDALTSDRVADVLGPVDEATTVQKDDATVRGLAERIAAKFESGGDTDRVTRDTLDEYVFRAAENTAEYADATIGETARENVADALWARMATVPDDPPNTSALADDRDAASDLLAAMASVNVMAPPTSCLSPIEADQLEAGLRTEFDADFYAAATRDADVHGGDPFIVEAGIAYGGDIDSEGGVQLMRFANRVPLVYQRGACATTDVLGDIGWRNYNLSQPGGSGLPQGPAVIMVHVASTNVPFTSESKDAIANVPEIEAEIELAVREAARELKSFLQKRQSMRKRQQKQDVIMDILPTMAEKVGELTGRGGVDVSDSLARIMNNVLVERARSDDGQTVTLRVENHGTGSVDVDVTDIVSAEPDGVGDDASVVAMDDEYFVKWTPAVAGDDAAELTYSVDADADCELSVSGVADARLTVSEADT", "values": [{"measurement": "protein production", "result": "failed"}]}
{"sequence": "MNKFKLGSDFDHLVNSLSDVELLNLFIQSCSQTTINGVPVPRFPPEEIQKQFVGASYEHALYEAYLFYRHIKEYAQNLGVPLNKESKVLDFGCGWGRIIRFLFKDASDQNLLGIDVDPAMITLCNETLGRGIYKTASPHPPVEFISDNSLDIIFAYSVFSHLSEATAENWVKEFSRVLRPGGIFIATTQARYFLDFCQQFQEHPELIQTGWHKTLSQAFPDIHRAISDYENGKFVHSPTGAGDVRNSSFYGETVIPRTYIENHYEKYLKLQDFFDDVNRLPQALFVLQKILEHHHHHH", "values": [{"measurement": "protein production", "result": "not failed"}]}
{"sequence": "QLLEPIRDFEARKCPVHGKTMELFCQTDQTCICYLCMFQEHKNHSTVTVEEAKAEKETE", "values": [{"measurement": "protein production", "result": "not failed"}]}
{"sequence": "MHLKEKITTIIQGQRTGVLSTVRNDKPHSAFMMFFHEDFVLYVATDRQSKKITDIENNPNVHVLLGREGKKLDEDYIEVEGLASIEEDSTLKNKFWNNSLKRWLLRPEDPNYVLIKINPDTIYYIDGAGTTEPEFLRL", "values": [{"measurement": "protein production", "result": "not failed"}]}
{"sequence": "NLNAIQNFGAMNILCTDKTGTLTCDKIVLEKYINADGSDDHSRRILRHAFLNSYFQTGLKNLMDKAILAHVREENLEHLTEGYTKIDEIPFDFSRRRMSVVIEDQQGKRQIITKGAVEEMLNICSHAEFNGQVYELTDKLRSKAKRISDDMNRNGMRVLAIAQKSFISKARDFAVTDEDEMVLIGYLAFLDP", "values": [{"measurement": "protein production", "result": "failed"}]}
{"sequence": "MRNGILYAILLYVFMFVLWFCFAYFIDTSTTIFNIPLWFFLSGILFPSIIFFWFVFLF", "values": [{"measurement": "protein production", "result": "failed"}]}
{"sequence": "MFYITSKKVPFVTYSKNVFIPVTNICRNQCGYCGFRREPGQPGARLMKPEEVISVLENGVRAGCTEALFTFGERAEEVPGYGEMLEEIGYSSTLEYLVFLCETAIDIGILPHTNAGIMTRSELEALKPLNASMGLMLESTAVLAAHKDCPGKIPERRLETIREAGKLKIPYTTGLLIGIGESRDDRIESLEAIAALHREYGHIQEVIIQNFAPKPGTEMENFPEPAVEEMMDSVELAARILPGDVAVQVAPNLIDPKSLIAKGVTDLGGISPLTIDWINPEAEWPDVKNLQKKLGDIPLKERLPVYPPYVKKGWYSERIGSLIKRLEHHHHHH", "values": [{"measurement": "protein production", "result": "failed"}]}
{"sequence": "MAEIDYKKVTGMIHSTESFGSVDGPGIRFIIFMQGCKMRCQYCHNPDTWEMETNNSKERTVEDVLKEALRYKHFWGKDGGITVSGGEAMLQIDFITALFIEAKKLGIHTTLDTCGFAYRATPEYHAILEKLLDVTDLVLLDLKEIDSEQHKIVTRQSNKNILQFARYLSDRGTPVWIRHVLVPGLTDIDDHLKRLGEFVQTLDNVDKFEVLPYHTMGEFKWRELGIPYPLAGVKPPTPERVKNAKDIMKTESYTEYLKRIQN", "values": [{"measurement": "protein production", "result": "not failed"}]}
{"sequence": "MKPVKVGICGLGTVGGGTFNVLQRNAEEIARRAGRGIEVAQIAVRTPNPNCQIGSTPTTSDVFAVATNPEIDIVVELIGGYTLARELVLKAIENGKHVVTANKALIAVHGNEIFAKAREKGVIVAFEAAVAGGIPVIKAIREGLSANRINWVAGIINGTGNFILTEMREKGRTFPDVLAEAQALGYAEVDPTFDVEGIDAAHKLTILASIAFGIPLQFDKAYTEGITKLTTADVNYAEALGYRIKHLGVARSTAQGIELRVHPTLIPADRLIANVNGVMNAVMVNGDASGSTLFYGAGAGMEPTASSVVADLVDVVRAMTSDPENRVPHLAFQPDSLSAHPILPIEACESAYYLRIQAKDHPGVLAQVASILSERGINIESIMQKEVEEHDGLVPMILLTHRVVEQRINDAIQALEALQDVVGPVVRIRVEHLN", "values": [{"measurement": "protein production", "result": "not failed"}]}
{"sequence": "INKIENYEQSTSQLREEINALYNQVIEVGQALSKQRRIVARELRDHIVSEIQNLQMKDANLEISFKKLEEPNIDGIEFVEFLISPNKGEPLKSLNKIASGGELSRIMLALKSIFVKSRGQTAILFDEVDSGVSGQAAQKMAEKMRDIAEYIQVICISHLPQVASMSDHHLLI", "values": [{"measurement": "protein production", "result": "failed"}]}
